Test system: MS2 coat protein
Assay: apparent KD of MS2 coat protein; higher = weaker reporter binding
Settings: Eterna round: R107
Procedure, shortened: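 Normalised binding curves from single clusters were fitted, and the median fit for each design is given as apparent KD. The clusters held designed RNA switches transcribed on-chip from Illumina sequencing clusters. These were titrated with SNAP-549-labelled MS2 coat protein (twofold steps from 0.7 or 1.5 nM to 3 µM, 0.8–1.5 h to 10–20 min per step) in 100 mM Tris-HCl pH 7.5, 80 mM KCl, 4 mM MgCl2, without or with constant ligand.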

[1] = input ligand: theophylline 20 uM
[2] = input ligand: theophylline 2 mM
[3] = input ligand: tryptophan 2.4 mM

Row | Sequence | apparent KD of MS2 coat protein (input ligand: arginine 13.2 mM) [nM] | apparent KD of MS2 coat protein (input ligand: none) [nM] | apparent KD of MS2 coat protein [1] [nM] | apparent KD of MS2 coat protein [2] [nM] | apparent KD of MS2 coat protein [3] [nM]
1 | ACAUUUAACUGAAGGAGCGUGAUAUACAUGAGGAUCACCCAUGUGUCUUACAUGAAUAAUUCACAGGUAGGUCGCAGACUAAUGA [JR_ExcArginiB_Sub009] | 30.5 | 26.7 | 33.7 | 39.4 | 32.1
2 | CAUUAAUUACGAAGGAGCGUCGAGAAUGGGUAAACAUGAGGAUCACCCAUGUGAAGGGAACGGCAGGUAGGUCGCGUAAUUAAUG [#22 Same State - Arginine B] | 105 | 97.2 | 116 | 75.1 | 60.5
3 | UAACAUGAGGCGGCCGCCACUCAACAUGAGGAUCACCCAUGUAUGUGUAAACAUGAGGAUCACCCGAGGACCGGGCCCUUGUAAU [Same State Tryptophan B 4] | 25.2 | 33.4 | 46.7 | 39.5 | 54.2
4 | GGGUACAUCGCGGCCGCCACUGGUGUAAAUACAUGAGGAUCACCCAUGUCGAUGGAGACAUCGGGUAGGACCGGGUGAUGUACCG | 19.8 | 21.9 | 37.3 | 30.2 | 24.3
5 | ACAUGAAGAACAGCGGUGGGCGCGCUCGAUACCAGUACUUUAAAAUACCCUUGGCAGCGACAUGAGGAUCACCCAUGUGAGAUGA [XTheo A #4] | 15.3 |  | 18.5 |  | 18.5
6 | UGUAUGGACUGAAGGAGCGGUAGAUAACUUGAGGAUCACCCAGGUAAUAAGGCGAAAGCCUACCAGGUAGGUCGCAGUCCAUACU | 203 | 144 | 171 | 153 | 138
7 | GAAUUUUAUUGAAGGAGCGUCGAAAAUGGGUAAACAUGAGGAUCACCCAUGUAAAGGGAACGACAGGUAGGUCGCAAUAGGAUUC [AstromonsSSArgB#28] | 140 | 177 | 188 | 247 | 151
8 | AGCUCGCGAAAGCGAGCAACAUGAUCCGAAGGAGCGGGCGAAAGCCCAGGUAGGUCGCGGACAUGAGGAUCACCCAUGUCUCCUU [MAT - Exclusion Arginine A - Mod of Eli - D13] | 41 | 70.9 | 88.4 | 94.8 | 77
9 | AUAAGUAUGUUUUCGUGUUUUAUUACAGAUACCAGACUAUACGUUGUCCCUUGGCAGCUGGAUUACAUGAGGAUCACCCAUGUUG [#26 Exclusion-TheophyllineA] | 19.9 |  | 32 |  | 23.1
10 | GGACUAACCUGAAGGAGCGACACGCACAAAGUGCAAAUUCCUCCACACGAGGAUCACCCGUGUCAGGUAGGUCGCAGGUUAGUCG [ArgBX 28] | 24.3 | 23 | 30.8 | 23.7 | 29.1
11 | GGGUACAUCGCGGCCGCCACUUGUGUAAAUACAUGAGGAUCACCCAUGUCGAUGGAGACAUCGGCAAGGACCGGGUGAUGUACCG | 107 | 130 | 172 | 146 | 15.2
12 | CCUGCGUUUCUUUUCUUUCGCAGGAAUGAUACCAGUAGGGAAACCUACCCUUGGCAGCAUGGGACAUGAGGAUCACCCAUGUUUU [SSThA NP+V+V2 #4] | 117 |  | 202 |  | 181
13 | AGCAGCUCGAAAGAGUUGCACUCAUGUGAAGGAGCGCGCGUUAGCGCAGGUAGGUCGCACAUGAGGAUCACCCAUGUACCUUCUA [MAT - Exclusion Arginine A - Mod of Eli - D15] | 87.3 | 173 | 211 | 268 | 108
14 | UGUAUGGACUGAAGGAGCGGGUUGAUAACUUGAGGAUCACCCAGGUAAAAGGCGAAAGCCACCCAGGUAGGUCGCAGUCCAUACU | 52.6 | 57.9 | 58.2 | 69.2 | 66.2
